Measured values: the nanobody polyreactivity screen of Harvey et al. (2022)

Experiment: yeast display, Sf9 membrane polyspecificity reagent, FACS + sequencing; frameworks hold sequencing errors
Summary of the method: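 A synthetic nanobody library was expressed on Saccharomyces cerevisiae BJ5465 by galactose induction for 36–48 hours. The library was stained for 1 hour at 4 °C with 10% biotinylated, detergent-solubilized Sf9 membrane reagent and enriched with streptavidin microbeads before FACS. Low and high (top ~1%) gates were set on anti-HA fluorescence for expression and streptavidin fluorescence for reagent binding, and each polyreactivity label reflects the gate of origin.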

Row | Sequence | polyreactivity (PSR sort gate)
1 | QVQLVESGGGLVQAGGSLRLSCPASGSTFGYYAMGWYRQAPGKERELVAAITYSVGGTYYADSVKGRFTISRDNAKNTVYLQMNSLKPEDTAVYSCNVDYYVPPAGVTRTGDDDYWGQGTQVTVSS | low polyreactivity
2 | QVQLVESGGGLVQAGGSLRLSCAASGRIMPFYAMGWYRQAPGKERELVATISWTSDSTYYADSVKGRFTISRDNAKNTVFLQMNSLKPEDTAVYYCAREYTYTYASTVIYDHWGQGTQVTVSS | low polyreactivity
3 | QVQLVESGGGLVQAGGSLRLSSTASGSTIVAYAMGWYRQAPGKERELVAAITSSGGRTYYADSVKGRFTISRDNAKNSVYLQMNSLKPEDTAVYYCAAVTHGRYDWGQGTQVTVSS | high polyreactivity
4 | QVQLVESGVGLVQAGGSLRLICAASGFTFAKYAMGWYRQAPGKERELVAAISRSAGSTYYADSVKGRFTISRDYAKNTVYLQMNSLIPDDTAVYYCAADPLIYDDYYWGQGSQVTVSS | high polyreactivity
5 | QVQLVESGGGLVQAGGSLRLSCAASGRIFYVNAMGWYRQAPGKERELVAAISGSGGRTYYADSVKGRFTISRDNAKNTVYLQMNSLKPEDTAVYYWNTQFRYPQKYDYWGQGTQVTVSS | high polyreactivity
6 | QVQLVESGGGLVQAGGSLRLSCAASGSTFSTYAMGWYRQAPGKERELVAAITAGGGSTYYADSVKGRFTISRDNAKNTVYLQMNSLKPEDTAVYYCAARSYYRFGGGYWGQGTQVTVSS | high polyreactivity
7 | QVQLVESGGGLVQAGGSLRLSCAASGRIFYLYARGWYRQAPGKERELVATISSSGGRTYYADSVKGRFTISRDNAKNTVYLQMNSLKPEDTAVYYCNAYGEDDGPYPFPGYNYWGQGTQVTVSS | low polyreactivity
8 | QVQLVESGGGLVQAGGSLRLSCAASGSIFDSNAMGWYRQAPGKERELVAVITGSGGITYYADSVKGRFTISRDNAKNTVYLQMNRLKPEDTAVYYCYADYYLSEDGTWIYDYWGQGTQVTVSS | high polyreactivity
9 | QEQLQESGGGLVKAGGSLRLSCAASGNISPRDAMGWYRQAPGEERDLVASNAYSAITYYADGVKGRYTISRDNAKNTVYVQMNSLKPEDTDVYYCEFYQFTYPVFPAYWGQGTQVTVSS | low polyreactivity
10 | QVQLQESGGGLVQAGGSLLSCAASGTISYYREMGWYRQAPGKERELVAGIGVGTITYYADSVKGRFTISRHNAINTVYMQMNSLKPEDTAVYYCAAHIDGNDSHAYWGQGTQVTVSS | low polyreactivity
11 | QVQLVESGGGLVQAGGSLRLSCAASGRTFLVNAMGWYRQAPGKERELVAAITANGGNTYYADSVKGRFTISRDNAKNTVYLQMNSLKPEDTAVYYCAKLSHRGQSTGVDYWGQGTQVTVSS | low polyreactivity
12 | QVQLVESGGGLVQAGCSLRLSCAASGYTSRRNVMGWYRQAPGNERELVAAINSAGSTTYADSVKGRFTISRVNAKNTVYLQMNSLKPEDTAVYYCAASVYTYNYDLHKSYYLGQGTQVTVSS | high polyreactivity
13 | QVQLVESGGGLVQAGGSLPLSCAASGSIFMTYAIGWYRQAPGKERELVAAIRDSGDRTYYADSVKGRFTISRDNAKNTVYLQINSLKPEDTAVYYCNARWQEALKYDYWGQGTQVTVSS | low polyreactivity
14 | HVQLVESGGGLVQAGGSLRLSCAASRRTFGWYAMGWYRQAPGKERELVAAISLSGGSTYYADSVKGRFTISRDNAKNTVYLQRNSLKPDVTAVYDCAAADYWLGYDYWGQGSQVTVSS | low polyreactivity
15 | QVQLVESGGGLVQAGGSLRLSCAASGLTFRFYTMGWDRQAPGKERELVAAISTSGGSTYYADSVKGRFTISRDNAKNTVYLQMNSLKPEDTAVYYCNAVYALNGYDYWGQGTQVTVSS | low polyreactivity
16 | QVQLVESGGGLVQAGGSLRLRCAASGSTFAVYAMGWYRQAPGKERELVATIRWNGGSTYYADSVKGRFTISRDNAKNTVYLQMNSLKPEDTAVYYCAAPPIRPNLYDYWGQGTQVTVSS | high polyreactivity
17 | QVQLVESGGGLVQAGGSLRLSCAASGSIFYTNVMGWYRQAPGKERELVARIDSGGSTNYADSVKGRFTISRDNAKNTVFLQMNSLNPEDTAVYYCAADWYIYDYWGQGTQVTVSS | low polyreactivity
18 | QVQLVESGGGLVQAGGSLRLSCAASGSTCWFYAMGWYRQAPGKEREVVATITSGGNTTYADSVKGRFTISRDNAKNTVYLQMNSLKPEDTAVYYCAAGWQAPWGYYYHFEYDYWGQGTQVTVSS | low polyreactivity
19 | QVQLVESGGGLVQAGGSLRLSCAASGNTFYVNVMGWYRPAPGKEREFVAAISTRGVSTSYADSVKGRFTISRDNAKNTVYFQMNSLKPEDTAVYYGAARYYYRDWVGIISTYYYWGQGTQVTVSS | high polyreactivity
20 | QVHLVESGRGLVQAGGSLRLSCAASGSIFESYAIGWYRQAPGKERELVAAISGNSDSTYYADSVKGRFTISRDNEKNTVYLQMNSLKPEDTAVYYCAKEGGNGYDYWGQGTQVTVSS | low polyreactivity
21 | QVQLVESGGGLVQAGGSLRLSCAASGFTIYRYAMGWYRQAPGKERELVATIRRGGSTKYADSVKGRYTISRDNAKNTVYILMISLKPEDTAVYYCNARYYAAPDKYYYWGQGTQVTVSS | low polyreactivity
22 | QVQRVESGGGLVQAGGSLRLSCAASGFTLDYYTMGWYRQAPGKERELVAAISWIGTSTYYADSVKGRFTISRDNAKNTVYIQMNSLKPEDTAVYYCAAVGASVDDYYWGQGSQVTVSS | high polyreactivity

Row | Sequence | polyreactivity (PSR sort gate)
23 | QVQLVESGGGLVQAGGSLRLSCAASGSISPYNAKGWYRQAPGKERELVAAISSGGRTYYAVSVKGRFTISRDNAKNTVYLQMNSLKPEDTAVYYCNKYPLRPYRGLGVYYRSDYWGQGTQVTVSS | high polyreactivity
24 | QVQLVESGGGLVQAGGSLRLTCAASGRIIGFNAMGWYRQAPGKERELVASIRTTGGTTYYADSVKGRFTISSDNAKNTVYLQMNSLKPEDTAVYYCAARRYPPRMDYWGQGTQVTVSS | high polyreactivity
25 | QVQLVESGGGLVQAGGSLRLSCAASGRIFPGYTMGWYRQAPGKERELVAGISRSGGRTYYADSVKGRFTISRDNAKNTVYLQMNSLKPEDTAVYYCAADGYPGRRYTGMDYWGQGTQVTVSS | high polyreactivity
26 | QVQLVESGGGLVQAGGSLLLSCAAYGSISPYYTMGLYRQAPGKERELVAAICSGGRTYYADSVKGRFTISRDNAKNTVYLHMNSLNPEDTSVYYCAVEVAWYVHWGDMDYWGQGTQVTVSS | low polyreactivity
27 | QVELVESGGGLVQAGGRPRLSCAASGSTFAGYAMGWERQAPGKERELVAAISRRGGSTYYADSVKGRFTISRDNAKNTVYLQMNSLKPEDTAVYFFARDYPLHYDYWGQGTQVTVSS | high polyreactivity
28 | QVQLVESGGGLVQAGGILRLSCAASGSIFSFYAMGWYRQAPGKERELVAAITRSGGTYYADSVKGRFTISRDNAKNTVYLQMNSLKPEDTAVYYCAAQYWYYYIWWEYYYWGQGTQVTVSS | low polyreactivity
29 | QVQLVESGGGLVQAGGSLRLSCAASGFTFYSNAMGWYRQAPGKERELVAAITGRGGRTYYADSVKGRFTISRDNAKNTVYLQMNSLKPEDTAVYYCAAVYHVSTWGGRYYFRQGYDYWGQGTQVTVSS | high polyreactivity
30 | QVQLVESGGGLVQAGGSLRLSCAASGFTFLKNAMGWYRQAPGKERELVAAITGSGGSTYYADSVKGRFTISRDNAKNTVYLQMNSLKPEDTAVYYCNVRRGLRAYEYWGQGTQVTVSS | high polyreactivity
31 | QVQLVESGGGLVQAGGSLRLSCAASGRTFVRNAMGWYRQAPGKERELVAAITRSGGSTYYADSVKGRFTISRDNAKNTVYLQMNSLKPEDTAVYYCSARPPYRVGIVPLGRREYYWGQGTQVTVSS | high polyreactivity
32 | QVQIVESGRGLVQAGGSLRLTCAASGINFHFNDMGWYRQAPRKQRELVAAIDSTGSTNYADSVKGRFTISRDNAKNTVYLQMNSLKPEDTAVYYCAVLNHRVDSVLTRYYYWGQGTQVTVSS | low polyreactivity
33 | QVQLVESGGGLVQAGGSLRLSCAASGSTSPTNVMGWYRQAPGKERELVAAISYSGGRTYYADSVKGRFTISRDNAKNTVYLQMNSLKPEDTAVYYCNAGKRGSTYYYWGQGTQVTVSS | high polyreactivity
34 | QVQLVESGGGLVQAGGSLRLSCAASGSIFEYNAMGWYRQAPGKERELVAAITDTGSITYYADSVKGRFTISRDNAKNTVYLQMNSLKPEDTAVYYCAARAYPATAVDRRQPGNYWGQGSQVTVSS | low polyreactivity
35 | QVQLVESGGALVQAGGSLRLSCAASGRTFNYYAKGWSRQAPGKERELVAAITNGVSTKYADSVKGRFTISRDNAKNTVYLQMNSLKPEDTAVYYCAAQRLYGYRLYNYWGQGTQVTVSS | high polyreactivity
36 | QVQREESGGGLVQAGGSLRLSCAASGSILYYNAMGWYRQAPGKEREFVAGISSSGGSTYYADSVKGRFTISRDNAKNTVYLQMKSLQPEENAVYYCAKRTYWRRGWCFDFWGQGTQVTVSS | high polyreactivity
37 | QVHLVESGGGLVQAGGSLRLSCSASGSTFYAYAMGWYRQARGKERELVARIRWRGGRSYYADSVKGRFTISRDNAKNTVYLQMHSLKPEDTAVYYCAARLYGRYDSQDNYWGQGTQVTVSS | high polyreactivity
38 | QVQLVESGGGLVQAGGSLRLSCAASGRILGFYAMGWDRQAPGKERELVARINWSGTRTYYADSVKGRFTISRDNAKNTVYLQMNSLKPEDTAVYYCAAERYPYVVTYSKLDYWGQGTQVTVSS | high polyreactivity
39 | QVQLVESGGGLVQAGGSLRLSCAASGCTFDYNAMGWYRQAPGKEREFVAAIDYSSGSTYYADSVKGRFTISRDNAKNTVYLQMNCLKPEDTAVYYCNAPIAVGSGLFDYWGQGTQVTVSS | high polyreactivity
40 | QVQLVESGGGLLQAGGSLRLSCAASGITFRFYAMGGYRQAPGKEREFVAAISCRGGRTYYADSVKGRFTISRDNAKNTVYIQMNSLKPEDTAVYYCAADFYYRTVATVTSVARYDYWGQGTQVTVSS | high polyreactivity
41 | QVHLVESGGGFVQAGGSLRLSCAASGSICGSYAMGWYRQAPGKERELVAAISKSGGNTYYADSVKGRFTISRDNAKNTVYLQMNSVKPEDTAVYYCAAYGFYRWRGYDYSGQGTQVTVSS | high polyreactivity
42 | QVQLQESGGGLVQAGGSMRLSCAASGSISELSPMGWYRQAPGKERELVAGISTGGSTNYADSVKGRFTISRDNAKNTVYLQMNSLKPEDTAVYYCAAASYGEGSYDYWGQGTQVTVRS | high polyreactivity
43 | QVQLVESGGGLVQAGGSLRISCAASGFTFWRYALGWYRQAPGKERELVAAISTGGSTNYADSVKGRFTISRDNAKNTVYLQMNSLKPEDTAVYYCNRQWNFTPYRRNYWGQGTQVTVSS | high polyreactivity
